Measured values from article PMC10058294, “Interaction of SARS-CoV-2 Nucleocapsid Protein and Human RNA Helicases DDX1 and DDX3X Modulates Their Activities on Double-Stranded RNA”.
“And” between values parts separate entries of the source, which are not always exact repeats. Equal entries are not always repeated.

How the values were obtained:
[1] = molecular target: T1, SARS-CoV-2 nucleocapsid protein (Np) (SARS-CoV-2, UniProt P0DTC9 1-419); assay: EMSA; time course; conditions: protein: recombinant; tags: His (pET30a(+), Ni-NTA purified); chain copies: 2; label: 5'-FAM; single strand
[2] = molecular target: T1, SARS-CoV-2 nucleocapsid protein (Np); assay: EMSA; apparent, cooperative fit; conditions: protein: recombinant; tags: His (pET30a(+), Ni-NTA purified); chain copies: 2; label: 5'-FAM on the 18 mer
[3] = molecular target: T1, SARS-CoV-2 nucleocapsid protein (Np); assay: EMSA; conditions: protein: recombinant; tags: His (pET30a(+), Ni-NTA purified); chain copies: 2; label: 5'-FAM on the 18 mer
[4] = molecular target: SARS-CoV-2 nucleocapsid protein (Np);DDX1 (SARS-CoV-2;Homo sapiens, UniProt P0DTC9;Q92499 1-419;1-740, |); assay: EMSA; Np titrated with fixed DDX1; conditions: protein: recombinant;recombinant; tags: His (pET30a(+), Ni-NTA purified);pET30a(+) vector; label: 5'-FAM on the 18 mer
[5] = molecular target: SARS-CoV-2 nucleocapsid protein (Np);DDX3X (SARS-CoV-2;Homo sapiens, UniProt P0DTC9;O00571 1-419;1-662, |); assay: EMSA; Np titrated with fixed DDX3X; conditions: protein: recombinant;recombinant; tags: His (pET30a(+), Ni-NTA purified);pET30a(+) vector; label: 5'-FAM on the 18 mer

Row | Binder | binding result [1] | Kd [2] [nM] | Kd [3] | Kd [4] [nM] | Kd [5] [nM]
1 | CUCAACUCAAACCUUCAU (ssRNA) [ssRNA 18 mer FAM] | binds |  |  |  | 
2 | 18/38 mer FAM partially dsRNA (dsRNA) RNA 1: AUGAAGGUUUGAGUUGAGUGGAGAUAGUGGAGGGUAGU RNA 2: CUCAACUCAAACCUUCAU |  | 170 | 193 nM and 300 nM | 40 | 80
